Measurements as given in paper PMC2936295, “Integrative inference of gene-regulatory networks in Escherichia coli using information theoretic concepts and sequence analysis”.

B1: Mlc-binding site (ptsG) (dsDNA)
DNA 1: TTGGCAAATTATTTTACTCTGTGTAATAAATAAAGGGCG
DNA 2: CGCCCTTTATTTATTACACAGAGTAAAATAATTCAGTGCCAA
B2: PdhR-binding site of pdhR-aceEF-lpd operon (dsDNA)
DNA 1: GCCGAAGTCAATTGGTCTTACCAATTTCATGTCTGTG
DNA 2: CACAGACATGAAATTGGTAAGACCAATTGACTTCGGC

How the values were obtained:
PdhR-His [1] = biological target: T1, PdhR-His (Escherichia coli K-12 LJ110, UniProt P0ACL9 1-254); assay: EMSA; no pyruvate; 18-46 pmol PdhR; EMSA, binding buffer and conditions as in ref 17 (not given) plus 0.1 mg/ml herring sperm DNA; 0.1 pmol probe (0.025 pmol for lipA); 6% polyacrylamide gel; pH; conditions: protein: recombinant; tags: C-terminal Penta-His; chain copies: 2; label: 5' DY782 (strand 1); 5' DY682 (strand 2); as printed, strand 2 has 3 extra nt (CAG opposite a gap in strand 1), possible misprint; blunt ends
PdhR-His [2] = biological target: T1, PdhR-His; assay: EMSA; no pyruvate; 9-37 pmol PdhR; EMSA, binding buffer and conditions as in ref 17 (not given) plus 0.1 mg/ml herring sperm DNA; 0.1 pmol probe (0.025 pmol for lipA); 6% polyacrylamide gel; pH; conditions: protein: recombinant; tags: C-terminal Penta-His; chain copies: 2; label: 5' DY682 (strand 1); 5' DY782 (strand 2); blunt

T1 sequence (P0ACL9 whole entry): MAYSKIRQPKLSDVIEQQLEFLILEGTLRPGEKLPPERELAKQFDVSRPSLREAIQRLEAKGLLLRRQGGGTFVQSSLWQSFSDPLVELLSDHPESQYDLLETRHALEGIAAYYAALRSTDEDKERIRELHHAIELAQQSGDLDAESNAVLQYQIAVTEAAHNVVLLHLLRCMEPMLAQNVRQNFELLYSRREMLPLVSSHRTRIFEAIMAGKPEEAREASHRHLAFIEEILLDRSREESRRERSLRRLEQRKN

Row | Binder | binding result (PdhR-His [1]) | binding result (PdhR-His [2])
1 | B1 | no binding | 
2 | B2 |  | binds
